Data on 167 variants can be found in the RNAGym collection of RNA variant scans (doi:10.1093/nar/gkz1192).

First the molecules themselves.
B1: CPEB3 Ribozyme (parent)
chain: UAACAGGGGGCCACAGCAGAAGCGUUCACGUCGCAGCCCCUGUCAGAUUCUGGUGAAUCUGCGAAUUCUGCUGUAUAUCUC

Variants of B1 are the subject of this data set. Put plainly: self-cleavage, relative activity (ratio to wild type); higher = more cleavage; in vitro, sequencing. The essentials:
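After error-prone PCR and barcoding, CPEB3 ribozyme mutant libraries were transcribed with T7 RNA polymerase at 37°C for 5 hours, then given 15 min with DNase I before an EDTA stop, and they cleaved during both steps. Reverse transcription with template switching preceded Illumina sequencing. Relative activity divides a variant's cleaved/total read fraction by the unmutated ribozyme's. At least 5 reads were required per variant, and three batches were averaged.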
In the case of G7A C40U, the self-cleavage was determined as 0.3. For the variant U74A, the self-cleavage is 1.25. As for C50A U60C, the self-cleavage amounted to 0.13. On to A5C U49C, for which the self-cleavage is 0.54. For G9U A56G, the self-cleavage was 0.14. In the case of U41A C59A, the self-cleavage worked out at 0.13. Turning to C11G A57G, the self-cleavage was 0.43. For U26A G36U the value was 0.39; for G36A A57G, 0.17. On to A47U U78A, for which the self-cleavage is 0.7. C79A: the self-cleavage turned out to be 1.19. Consider U74C A77U, for which the self-cleavage stood at 1.26. For G36U A47U the value was 0.08; for G30C A64U, 0.2. As for C38U G53A, the self-cleavage came to 0.89. Turning to U1C G19U, the self-cleavage stood at 0.4.

As for G42U A77U, the self-cleavage was determined as 0.37. With A13U A18U, the self-cleavage was found to be 0.38. With C4A G33U, the self-cleavage was 0.12. On to A5U C11G, for which the self-cleavage came out at 0.5. Turning to U31C C81G, the self-cleavage came out at 0.55. Turning to U1A G61C, the self-cleavage amounted to 0.29. To C38A U43A belongs 0.34. Regarding U25C U26A, the self-cleavage came to 0.28.

For A21U U67C, the self-cleavage was determined as 0.2. As for G63U U72C, the self-cleavage is 1.2. Turning to C11U U31G, the self-cleavage worked out at 0.23. For C11A A75G the value was 0.36; for A3G A28U, 0.89. Take A13U U74A: the self-cleavage worked out at 1.23.

Turning to U31A U69C, the self-cleavage is 0.3. For the variant A20U U78C, the self-cleavage was 0.32.

For A20U U78G, the self-cleavage amounted to 0.26. As for G24C A45G, the self-cleavage was determined as 0.21. For G8A C62U the value was 0.22; for C11A U67A, 0.17; for C4G U26C, 0.96. To A21G U76C belongs 0.63. For C27U U72A, the self-cleavage turned out to be 0.18.

As to A20G G55A, the self-cleavage was 0.58. Consider U51A A77G, for which the self-cleavage was found to be 0.93. For U25A C37U the value was 0.34; for G36C U66C, 0.23. To U48C A77G belongs 0.6; to A77G U80C, 1.12.

With A18U C40A, the self-cleavage amounted to 0.13.

On to U26C A56U, for which the self-cleavage was 0.28. As for U25A U66A, the self-cleavage is 0.31. Take A15U U31A: the self-cleavage came to 0.45.

As to G6U A35G, the self-cleavage came to 0.41. To U25A C44A belongs 0.17; to U26C G70C, 0.12; to G22C U25C, 0.45. In the case of A28U G61A, the self-cleavage was 0.45. Consider C32U U67C, for which the self-cleavage worked out at 0.19. A35G U58G: the self-cleavage came to 1.09.

In the case of A18G A75G, the self-cleavage is 0.57.

In the case of U66G U72A, the self-cleavage turned out to be 0.24. For the variant A20U C40U, the self-cleavage was 0.34. For A64G U72C, the self-cleavage amounted to 0.91. With G30C U51C, the self-cleavage was 0.19. For the variant G33C A65G, the self-cleavage amounted to 0.18. For U26A U48C the value was 0.47. To C23G belongs 0.26; to U1C U58C, 0.63; to G9A A21C, 0.06. Turning to U58G G70A, the self-cleavage was found to be 0.19.

As for U31A A77U, the self-cleavage is 0.51. Turning to A47G U67G, the self-cleavage worked out at 0.34. On to A5G A28U, for which the self-cleavage was 0.55. Take C29U U58A: the self-cleavage stood at 0.43. On to U41A A75U, for which the self-cleavage amounted to 0.4. Consider C23A U69C, for which the self-cleavage came to 0.12.

As to A3G C17U, the self-cleavage was determined as 0.85.

Turning to C50U G63U, the self-cleavage came to 0.82. For A3U U69A, the self-cleavage was 0.54. For A35U U49C the value was 0.27; for A21G A28C, 0.3; for C4U U41C, 1.07. Turning to U31C U78C, the self-cleavage was found to be 0.87.

As to C11U U66C, the self-cleavage was found to be 0.2. For A21G C37G the value was 0.19; for A45G G73C, 0.69.

In the case of A15G U51A, the self-cleavage turned out to be 0.9. Regarding U1C U41C, the self-cleavage is 0.87. C17G A64G: the self-cleavage came to 0.35. For the variant C23U U78C, the self-cleavage came to 0.27. In the case of G19U U41A, the self-cleavage was found to be 0.22. Turning to G61C U66A, the self-cleavage was found to be 0.23. Turning to A13G U31A, the self-cleavage was found to be 0.5. To G8U G33A belongs 0.08; to A45U A57C, 0.35.

Regarding G7A U60A, the self-cleavage worked out at 0.37. A3G U60A: the self-cleavage stood at 0.47.

With A45C U51C, the self-cleavage came out at 0.32. To C39U C71U belongs 0.57; to G22U U26A, 0.26; to A13C G30A, 0.25.

Take A45U G63C: the self-cleavage is 0.66.

C17U U49C: the self-cleavage came out at 0.15. To A13G C50U belongs 0.91. Regarding U25C U58C, the self-cleavage is 0.26. Take A13U C23U: the self-cleavage was found to be 0.15. For U25A A65G the value was 0.28. As to A18C C38U, the self-cleavage was determined as 0.12. Consider A13G A18U, for which the self-cleavage is 0.27.

C12U A28U: the self-cleavage turned out to be 1.12. For A15C G63A the value was 0.99. As to C29A A35U, the self-cleavage came to 0.51. As to C29A A35G, the self-cleavage came out at 1.11. Turning to C32A G63A, the self-cleavage came out at 0.4. In the case of G53A U80A, the self-cleavage was determined as 1.18.

In the case of U31C C50A, the self-cleavage amounted to 0.67.

In the case of U66C U74C, the self-cleavage came to 0.66.

As for A18G G53A, the self-cleavage amounted to 0.9. For G24C U72C, the self-cleavage came to 0.15. For A5C G30A the value was 0.19; for G30U A45G, 0.28; for U58C G63U, 0.91.

As for G46A U76C, the self-cleavage was 0.19. With U26C U74A, the self-cleavage is 0.73. For A21U C50A the value was 0.18; for A13G A28C, 0.43; for U31A A64C, 0.14. In the case of C37U U74C, the self-cleavage amounted to 1.12. As for A2G U69C, the self-cleavage turned out to be 0.32. Regarding C11A U26A, the self-cleavage came out at 0.3.

Regarding G6A G33A, the self-cleavage was 0.29. On to U48C U66A, for which the self-cleavage was 0.44. Take A35U C71A: the self-cleavage turned out to be 0.13. With A20U U60C, the self-cleavage amounted to 0.19. In the case of C44G U49C, the self-cleavage stood at 0.19.

Turning to C12U A15G, the self-cleavage turned out to be 0.86. To C17G A28G belongs 0.16; to U31A U74C, 0.77; to U1C G36C, 0.2. For C17G A18G the value was 0.11; for A77G U78G, 0.9; for G8U U58C, 0.1. Regarding A65U U80C, the self-cleavage is 0.38. Turning to A35U G61U, the self-cleavage came to 0.42.

Regarding G19U A35G, the self-cleavage amounted to 0.63. Consider A3G C71U, for which the self-cleavage came to 0.64.

As for A3G C71A, the self-cleavage was determined as 0.27. Turning to G10U A21G, the self-cleavage is 0.08. Turning to G16C C50U, the self-cleavage amounted to 0.18. Consider A3G A47U, for which the self-cleavage is 0.48. Take G53C U69A: the self-cleavage was 0.49. For A15U A77C, the self-cleavage turned out to be 0.41. Turning to C32G U51A, the self-cleavage is 0.04. To C38A U66C belongs 0.15; to U51C C71A, 0.53; to U51C C71U, 0.62.

For the variant U60C C79G, the self-cleavage stood at 0.81.

For G8U U60C, the self-cleavage was determined as 0.17.

Take A20G G30C: the self-cleavage is 0.24.

Regarding C44U U74C, the self-cleavage was found to be 0.6. For A5U G30A the value was 0.27; for G52U U76G, 1.19. For the variant U60A U80G, the self-cleavage was determined as 0.84. On to G19A G42A, for which the self-cleavage came to 0.15.

As for A5U C71U, the self-cleavage was determined as 0.79.

On to G30A U58C, for which the self-cleavage was determined as 0.16.

As for U25G U49C, the self-cleavage was found to be 0.45. Turning to U41C C71U, the self-cleavage was 0.76.

Take C59G U78C: the self-cleavage amounted to 0.27. For the variant C23U C39U, the self-cleavage was 0.24.
